In patent US20210403591A1 (OSSIANIX, published 2021) one finds Kd, koff and kon data, which are given here for 21 molecules.

The target in experiment [1] is T1, recombinant human TfR-1, His-tagged (Sino Biological 11020-H07H) (human, UniProt P02786 89-760).
T1 construct: bought; His-tagged; also called hTfR1; hTfR-1
Description: SPR, His-captured TfR1. As for the experimental part: (§1) Detailed binding kinetic analyses were performed to gain a better understanding of the relationship between affinity and brain penetration of the Clone C variants. Biacore surface plasmon resonance (SPR) analysis using immobilised mouse and human TfR-1 was performed for selected clones (Table 2).
(§2) Binding kinetics of VNAR-Fcs was determined by surface plasmon resonance (Biacore T200, GE Healthcare). CMS chips were coated with anti-His antibodies (His Capture Kit, GE Healthcare) as recommended by the manufacturer and human or mouse his-tagged TfR1 (SinoBiological) at 10 ug/mL in HBS-EP+ (GE Healthcare) was captured at flow rate 10 ul/min (contact time 120 s). […] A flow cell without TfR1 captured served as a reference. Sensorgrams were fitted and kinetic constants were determined using Biacore T200 Evaluation software. Chips were regenerated in 10 mM Glycine-HCl, pH 1.5 (contact time: 120 s at flow rate 30 ul/min).

The target of experiment [2] is T2, recombinant mouse TfR-1, His-tagged (Sino Biological 50741-M07H) (mouse, UniProt Q62351 89-763).
T2 construct: bought; His-tagged; also called mTfR1; mTfR-1
T2 sequence (Q62351 89-763 limits assumed, stated change not applied): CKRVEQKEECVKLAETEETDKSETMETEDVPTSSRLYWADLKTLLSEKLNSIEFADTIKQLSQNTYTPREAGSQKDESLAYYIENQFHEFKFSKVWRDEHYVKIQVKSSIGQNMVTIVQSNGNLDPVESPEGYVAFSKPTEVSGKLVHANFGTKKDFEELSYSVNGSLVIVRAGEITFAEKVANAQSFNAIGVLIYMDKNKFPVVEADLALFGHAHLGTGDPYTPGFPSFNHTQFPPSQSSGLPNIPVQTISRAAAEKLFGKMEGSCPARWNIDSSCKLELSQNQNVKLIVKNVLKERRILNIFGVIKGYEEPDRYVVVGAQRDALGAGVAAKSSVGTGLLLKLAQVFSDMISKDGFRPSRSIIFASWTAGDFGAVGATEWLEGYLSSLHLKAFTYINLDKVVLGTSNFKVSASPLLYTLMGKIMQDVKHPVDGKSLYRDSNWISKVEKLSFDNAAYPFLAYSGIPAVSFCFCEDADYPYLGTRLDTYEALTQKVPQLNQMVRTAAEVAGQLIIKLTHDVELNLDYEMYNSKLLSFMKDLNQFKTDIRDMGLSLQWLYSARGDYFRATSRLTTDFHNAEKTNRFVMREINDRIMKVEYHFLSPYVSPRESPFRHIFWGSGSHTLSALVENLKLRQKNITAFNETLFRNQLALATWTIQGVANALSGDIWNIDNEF
Description: SPR, His-captured TfR1. As for the experimental part:
as §1, §2
For orientation: SPR reads the build-up and loss of mass on a sensor chip optically.

T1 sequence (P02786 89-760 limits assumed): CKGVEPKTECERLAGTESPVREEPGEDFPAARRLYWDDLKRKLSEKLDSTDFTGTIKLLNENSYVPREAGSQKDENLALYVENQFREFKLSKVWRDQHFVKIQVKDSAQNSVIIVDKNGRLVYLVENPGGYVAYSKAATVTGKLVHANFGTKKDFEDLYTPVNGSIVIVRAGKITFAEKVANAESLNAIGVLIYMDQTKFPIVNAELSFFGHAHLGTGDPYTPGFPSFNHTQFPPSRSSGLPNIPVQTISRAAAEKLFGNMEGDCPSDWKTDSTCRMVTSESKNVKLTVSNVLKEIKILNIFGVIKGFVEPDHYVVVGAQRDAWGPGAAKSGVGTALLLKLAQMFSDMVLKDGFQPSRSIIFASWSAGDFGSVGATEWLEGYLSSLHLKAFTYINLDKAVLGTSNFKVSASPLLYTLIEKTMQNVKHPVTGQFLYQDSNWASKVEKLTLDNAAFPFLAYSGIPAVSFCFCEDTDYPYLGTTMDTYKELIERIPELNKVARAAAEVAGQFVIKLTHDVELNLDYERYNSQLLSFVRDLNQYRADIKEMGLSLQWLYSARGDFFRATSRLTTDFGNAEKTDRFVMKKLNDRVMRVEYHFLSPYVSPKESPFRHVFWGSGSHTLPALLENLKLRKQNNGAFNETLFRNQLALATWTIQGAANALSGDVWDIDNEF

B1: Clone C variant 1 VNAR-hFc (Fc fusion, not shown: a dimerising Fc or GST)
chain: ARVDQTPQTITKETGESLTINCVLRDSNCALSSTYWYRKKSGSTNEENISKGGRYVETVNSGSKSFSLRINDLTVEDSGTYRCNVAQRPSYNNYFWCDVYGDGTAVTVN
Broadly, the Kd is the constant that tells how readily two partners part at equilibrium. By koff is commonly meant a measure of how fast the partners let go of each other. The term kon denotes a measure of how fast the partners come together. For B1, in experiment [1], the Kd came to 2.79 nM, the koff turned out to be 0.000322 s⁻¹ and the kon was 115000 M⁻¹ s⁻¹. Further, in experiment [2], the Kd is 1.45 nM, the koff was found to be 0.000154 s⁻¹ and the kon amounted to 106000 M⁻¹ s⁻¹.

B2: Clone C variant 3 VNAR-hFc (Fc fusion, not shown: a dimerising Fc or GST)
chain: ARVDQTPQTITKETGESLTINCVLRDSNCALSSTYWYRKKSGSTNEENISKGGRYVETVNSGSKSFSLRINDLTVEDSGTYRCNVVQHPSYNNYFWCDVYGDGTAVTVN
Regarding B2, in experiment [1], the Kd is 0.311 nM, the koff was 0.000119 s⁻¹ and the kon stood at 381000 M⁻¹ s⁻¹. In addition, in experiment [2], the Kd is 0.72 nM, the koff worked out at 0.000256 s⁻¹ and the kon is 355000 M⁻¹ s⁻¹.

B3: Clone C variant 11 VNAR-hFc (Fc fusion, not shown: a dimerising Fc or GST)
chain: ARVDQTPQTITKETGESLTINCVLRDSNCALSSTYWYRKKSGSTNEENISKGGRYVETVNSGSKSFSLRINDLTVEDSGTYRCNVVQYPHYNNYFWCDVYGDGTAVTVN
Turning to B3, in experiment [1], the Kd was determined as 0.472 nM, the koff was determined as 9.01e-05 s⁻¹ and the kon was determined as 191000 M⁻¹ s⁻¹. For the same molecule, in experiment [2], the Kd came out at 0.291 nM, the koff came to 5.17e-05 s⁻¹ and the kon was 177000 M⁻¹ s⁻¹.

B4: Clone C variant 15 VNAR-hFc (Fc fusion, not shown: a dimerising Fc or GST)
chain: ARVDQTPQTITKETGESLTINCVLRDSNCALSSTYWYRKKSGSTNEENISKGGRYVETVNSGSKSFSLRINDLTVEDSGTYRCNVVQYPQQPNYFWCDVYGDGTAVTVN
Take B4: in experiment [1], the dissociation constant Kd came out at 0.248 nM, the koff is 5.78e-05 s⁻¹ and the kon is 233000 M⁻¹ s⁻¹. In experiment [2], the Kd was found to be 0.0902 nM, the koff is 2.52e-05 s⁻¹ and the kon worked out at 279000 M⁻¹ s⁻¹.

B5: Clone C variant 14 VNAR-hFc (Fc fusion, not shown: a dimerising Fc or GST)
chain: ARVDQTPQTITKETGESLTINCVLRDSNCALSSTYWYRKKSGSTNEENISKGGRYVETVNSGSKSFSLRINDLTVEDSGTYRCNVVQYPQQDRPFWCDVYGDGTAVTVN
As to B5, in experiment [1], the Kd was found to be 6.34 nM, the koff came out at 0.000156 s⁻¹ and the kon was found to be 24500 M⁻¹ s⁻¹. In addition, in experiment [2], the Kd is 6.69 nM, the koff worked out at 0.000133 s⁻¹ and the kon stood at 19900 M⁻¹ s⁻¹.

B6: Clone C variant 10 VNAR-hFc (Fc fusion, not shown: a dimerising Fc or GST)
chain: ARVDQTPQTITKETGESLTINCVLRDSNCALSSTYWYRKKSGSTNEENISKGGRYVETVNSGSKSFSLRINDLTVEDSGTYRCNVVQYPFLENYFWCDVYGDGTAVTVN
For B6, in experiment [1], the Kd turned out to be 2.79 nM, the koff came to 0.000389 s⁻¹ and the kon is 140000 M⁻¹ s⁻¹.

B7: Clone C variant 24 VNAR-hFc (Fc fusion, not shown: a dimerising Fc or GST)
chain: ARVDQTPQTITKETGESLTINCVLRDSNCALSSTYWYRKKSGSTNEENISKGGRYVETVNSGSKSFSLRINDLTVEDSGTYRCNVVQYPSWDNYFWCDVYGDGTAVTVN
Turning to B7, in experiment [1], the Kd was found to be 2.19 nM, the off-rate (koff) came to 0.000194 s⁻¹ and the kon was determined as 88800 M⁻¹ s⁻¹.

B8: Clone C variant 22 VNAR-hFc (Fc fusion, not shown: a dimerising Fc or GST)
chain: ARVDQTPQTITKETGESLTINCVLRDSNCALSSTYWYRKKSGSTNEENISKGGRYVETVNSGSKSFSLRINDLTVEDSGTYRCNVVQYPSNNNYFWCDVYGDGTAVTVN
As for B8, in experiment [1], the Kd was 8.44 nM, the koff was found to be 0.000627 s⁻¹ and the kon amounted to 74200 M⁻¹ s⁻¹.

B9: Clone C variant 23 VNAR-hFc (Fc fusion, not shown: a dimerising Fc or GST)
chain: ARVDQTPQTITKETGESLTINCVLRDSNCALSSTYWYRKKSGSTNEENISKGGRYVETVNSGSKSFSLRINDLTVEDSGTYRCNVVQYPSQQNYFWCDVYGDGTAVTVN
B9: in experiment [1], the Kd worked out at 1.36 nM, the koff is 0.000432 s⁻¹ and the kon turned out to be 317000 M⁻¹ s⁻¹.

B10: Clone C variant 6 VNAR-hFc (Fc fusion, not shown: a dimerising Fc or GST)
chain: ARVDQTPQTITKETGESLTINCVLRDSNCALSSTYWYRKKSGSTNEENISKGGRYVETVNSGSKSFSLRINDLTVEDSGTYRCNVVQWPSIQSPFWCDVYGDGTAVTVN
In the case of B10, in experiment [1], the Kd came out at 19.3 nM, the koff amounted to 0.000955 s⁻¹ and the kon was 49500 M⁻¹ s⁻¹.

B11: Clone C variant 2 VNAR-hFc (Fc fusion, not shown: a dimerising Fc or GST)
chain: ARVDQTPQTITKETGESLTINCVLRDSNCALSSTYWYRKKSGSTNEENISKGGRYVETVNSGSKSFSLRINDLTVEDSGTYRCNVLQRPSYNNYFWCDVYGDGTAVTVN
With B11, in experiment [1], the Kd stood at 49.4 nM, the koff stood at 0.000677 s⁻¹ and the kon worked out at 13700 M⁻¹ s⁻¹. In experiment [2], the Kd is 9.65 nM, the off-rate (koff) is 0.000144 s⁻¹ and the kon came out at 14900 M⁻¹ s⁻¹.

B12: Clone C variant 4 VNAR-hFc (Fc fusion, not shown: a dimerising Fc or GST)
chain: ARVDQTPQTITKETGESLTINCVLRDSNCALSSTYWYRKKSGSTNEENISKGGRYVETVNSGSKSFSLRINDLTVEDSGTYRCNVVQRPSYNNYFWCDVYGDGTAVTVN
For B12, in experiment [1], the Kd came out at 9.21 nM, the koff was determined as 0.000325 s⁻¹ and the kon came out at 35200 M⁻¹ s⁻¹. In experiment [2], the Kd is 2.34 nM, the koff amounted to 8.76e-05 s⁻¹ and the kon was 37400 M⁻¹ s⁻¹.

B13: Clone C variant 9 VNAR-hFc (Fc fusion, not shown: a dimerising Fc or GST)
chain: ARVDQTPQTITKETGESLTINCVLRDSNCALSSTYWYRKKSGSTNEENISKGGRYVETVNSGSKSFSLRINDLTVEDSGTYRCNVVQWPTLSSPFWCDVYGDGTAVTVN
On to B13, for which, in experiment [1], the Kd was 26.5 nM, the koff turned out to be 0.000754 s⁻¹ and the kon was 28500 M⁻¹ s⁻¹. In experiment [2], the Kd stood at 2.43 nM, the koff amounted to 9.32e-05 s⁻¹ and the kon was found to be 38300 M⁻¹ s⁻¹.

B14: Clone C variant 25 VNAR-hFc (Fc fusion, not shown: a dimerising Fc or GST)
chain: ARVDQTPQTITKETGESLTINCVLRDSNCALSSTYWYRKKSGSTNEENISKGGRYVETVNSGSKSFSLRINDLTVEDSGTYRCNVVQYPSYDNPFWCDVYGDGTAVTVN
As for B14, in experiment [1], the Kd came out at 17.1 nM, the koff is 0.000569 s⁻¹ and the kon was 33300 M⁻¹ s⁻¹.

B15: Clone C variant 5 VNAR-hFc (Fc fusion, not shown: a dimerising Fc or GST)
chain: ARVDQTPQTITKETGESLTINCVLRDSNCALSSTYWYRKKSGSTNEENISKGGRYVETVNSGSKSFSLRINDLTVEDSGTYRCNVVQSPSYNNYFWCDVYGDGTAVTVN
As to B15, in experiment [1], the Kd worked out at 0.733 nM, the koff is 0.000302 s⁻¹ and the kon was found to be 411000 M⁻¹ s⁻¹. Further, in experiment [2], the equilibrium dissociation constant (Kd) came out at 0.486 nM, the koff is 0.000135 s⁻¹ and the kon is 278000 M⁻¹ s⁻¹.

B16: Clone C variant 7 VNAR-hFc (Fc fusion, not shown: a dimerising Fc or GST)
chain: ARVDQTPQTITKETGESLTINCVLRDSNCALSSTYWYRKKSGSTNEENISKGGRYVETVNSGSKSFSLRINDLTVEDSGTYRCNVVQWPSLSSPFWCDVYGDGTAVTVN
As for B16, in experiment [1], the Kd worked out at 0.636 nM, the koff came out at 7.02e-05 s⁻¹ and the on-rate (kon) was 110000 M⁻¹ s⁻¹. Also, in experiment [2], the Kd was determined as 0.286 nM, the koff was 3.39e-05 s⁻¹ and the kon was found to be 119000 M⁻¹ s⁻¹.

B17: Clone C variant 17 VNAR-hFc (Fc fusion, not shown: a dimerising Fc or GST)
chain: ARVDQTPQTITKETGESLTINCVLRDSNCALSSTYWYRKKSGSTNEENISKGGRYVETVNSGSKSFSLRINDLTVEDSGTYRCNVVQYPQYDNYFWCDVYGDGTAVTVN
Consider B17, for which, in experiment [1], the Kd was determined as 0.439 nM, the koff was 8.13e-05 s⁻¹ and the kon is 185000 M⁻¹ s⁻¹. For the same molecule, in experiment [2], the equilibrium dissociation constant (Kd) stood at 0.207 nM, the koff stood at 3.72e-05 s⁻¹ and the kon was determined as 180000 M⁻¹ s⁻¹.

B18: Clone C variant 21 VNAR-hFc (Fc fusion, not shown: a dimerising Fc or GST)
chain: ARVDQTPQTITKETGESLTINCVLRDSNCALSSTYWYRKKSGSTNEENISKGGRYVETVNSGSKSFSLRINDLTVEDSGTYRCNVVQYPSIFNYFWCDVYGDGTAVTVN
Regarding B18, in experiment [1], the Kd came to 4.58 nM, the koff is 0.000437 s⁻¹ and the kon came to 95500 M⁻¹ s⁻¹.

B19: Clone C variant 8 VNAR-hFc (Fc fusion, not shown: a dimerising Fc or GST)
chain: ARVDQTPQTITKETGESLTINCVLRDSNCALSSTYWYRKKSGSTNEENISKGGRYVETVNSGSKSFSLRINDLTVEDSGTYRCNVVQWPSYNNYFWCDVYGDGTAVTVN
Consider B19, for which, in experiment [1], the Kd was found to be 4.5 nM, the koff is 0.000519 s⁻¹ and the kon worked out at 115000 M⁻¹ s⁻¹. Moreover, in experiment [2], the Kd stood at 6.81 nM, the koff is 0.000432 s⁻¹ and the on-rate constant (kon) came out at 63500 M⁻¹ s⁻¹.

B20: Clone C variant 12 VNAR-hFc (Fc fusion, not shown: a dimerising Fc or GST)
chain: ARVDQTPQTITKETGESLTINCVLRDSNCALSSTYWYRKKSGSTNEENISKGGRYVETVNSGSKSFSLRINDLTVEDSGTYRCNVVQYPQQDNPFWCDVYGDGTAVTVN
Take B20: in experiment [1], the Kd is 0.699 nM, the koff is 0.000142 s⁻¹ and the kon came out at 203000 M⁻¹ s⁻¹. In experiment [2], the Kd was found to be 0.715 nM, the koff came out at 0.000128 s⁻¹ and the kon was 179000 M⁻¹ s⁻¹.

B21: Clone C variant 19 VNAR-hFc (Fc fusion, not shown: a dimerising Fc or GST)
chain: ARVDQTPQTITKETGESLTINCVLRDSNCALSSTYWYRKKSGSTNEENISKGGRYVETVNSGSKSFSLRINDLTVEDSGTYRCNVVQYPRTNNYFWCDVYGDGTAVTVN
Consider B21, for which, in experiment [1], the Kd was 0.454 nM, the koff was determined as 0.000109 s⁻¹ and the kon came out at 239000 M⁻¹ s⁻¹. Also, in experiment [2], the Kd turned out to be 1.33 nM, the koff was 0.000287 s⁻¹ and the kon is 216000 M⁻¹ s⁻¹.
